Measurements published in patent US20230248799A1, “COMBINATION THERAPY OF SUBSTANCE-P FOR MOBILIZATION OF HEMATOPOIETIC STEM CELLS” (ELPHIS CELL THERAPEUTICS, priority 2020, published 2023).

Key:
[1] = test system: immune cells in the blood; test: Effect of SP on blood immune cells (CBC count, percentages in total leukocytes); settings: rabbits, G-CSF 10 µg/kg intravenous twice; day 2
[2] = test system: hematopoietic stem cells in the blood; test: Mobilization of hematopoietic stem cells by SP alone (HSC-CFU colony count of blood cells); assay type: in vivo; settings: rabbits; for level of hematopoietic stem cells in blood on the basis of 1X on day 0: intravenous (ear vein) twice, SP 6.7 µg/kg, G-CSF 10 µg/kg
Description: In order to confirm the effect of the drug administered in a normal physiological state alone, the effect of SP was tested using a normal group without wounds. This is because, in the case of injured animals, there are many other factors secreted by the wounds, and, thus, it is difficult to differentiate such factors from the effect of the administered drug, and especially because both SP and G-CSF are endogenous substances in the body.
To confirm the effect of SP alone on mobilization of hematopoietic stem cell, five (5) rabbits were prepared for each group. SP (6.7 µg/kg, sigma Aldrich) was administered twice via Ear vein, and the levels of hematopoietic stem cells in the blood of the same animals for 3 days were compared.
After injection of the drug, 5 ml of blood was collected once a day, put into a 15 ml tube (Falcon), and diluted twice by adding PBS (Welgene). To isolate blood cells, each of 5 ml Ficoll-Paque (Amersham) was placed in a new tube, and diluted blood was placed on top of it. The tubes were carefully handled so as not to mix the Ficoll layer and blood layer, and, after the blood layers were completely put in the tubes, centrifugation (813 g, Megafuge 8R, Thermo Scientific) was performed for 20 minutes. After centrifugation, the layers were separated, resulting in a total of four layers. The uppermost layer was plasma, the second layer was the blood cell layer excluding erythrocytes, the third layer was Ficoll, and the bottom layer was the erythrocyte layer. Among them, only the blood cell layer was separated and put into a tube, and PBS was then added thereto to centrifuge same. 5×10^6 blood cells were placed in a 35 mm plate and cultured in HSC-CFU media (Hematopoietic stem cells-colony forming unit media, purchased from Miltenyi). While the cells were cultured in the initial state for 2 weeks without exchanging the media, the number of colonies was observed every day and finally counted.

B1: G-CSF: recombinant granulocyte colony stimulating factor, a glycoprotein stimulating neutrophil progenitor cells and mature neutrophils (protein, UniProt P09919 31-207, looked up)
Granulocyte …: TPLGPASSLPQSFLLKCLEQVRKIQGDGAALQEKLVSECATYKLCHPEELVLLGHSLGIPWAPLSSCPSQALQLAGCLSQLHSGLFLYQGLLQALEGISPELGPTLDTLQLDVADFATTIWQQMEELGMAPALQPTQGAMPAFASAFQRRAGGVLVASHLQSFLEVSYRVLRHLAQP
With B1 the “increase of the percentage of neutrophils in the blood” value [1] was “about 65%”, the “level of hematopoietic stem cells in blood on the basis of 1X on day 0” value (“level of hematopoietic stem cells” below) ([2]; day 1) was 2 X and the “level of hematopoietic stem cells” value ([2]; day 2) was 2.5 X. The “level of hematopoietic stem cells” value ([2]; day 3) was 0.6 X and the “effect on mobilization of hematopoietic stem cells (in words)” value ([2]; intravenous twice, followed for 3 days, FIG. 1) was “negligible effect on mobilization of hematopoietic stem cells”.
